Assay results: paper PMC5785501, “Crystal structure of lipid A disaccharide synthase LpxB from Escherichia coli” (Nature Communications, 2018)

Tests used:
[1] = target: the molecule itself; test: crystal structure; X-ray, one molecule in the asymmetric unit, dimer by crystal symmetry; LiCl, PEG 4000, 0.1 M Tris-HCl pH 8.6; apo and soaked with 10 mM UDP-GlcNAc
[2] = target: the molecule itself; test: AUC; LpxB6S at 1 mg/ml, 5,000-16,000 r.p.m. for 10 h each, absorbance at 280 nm; mass modelled

Protein | binding result [1] | stoichiometry N [2]
LpxB7S (LpxB6S with M207S) (enzyme, Escherichia coli, UniProt P10441 1-382, looked up, lipid A disaccharide synthase LpxB, Escherichia coli; Native LpxB7S, apo and soaked with UDP-GlcNAc (UDP seen); also called LpxB6SM207S; source: E. coli BL21 (DE3), purified (Ni-NTA, Ulp1 cleavage, Superdex 200); not shown: His tag, N-terminal, cleaved; SUMO, N-terminal, cleaved) MTEQRPLTIALVAGETSGDILGAGLIRALKEHVPNARFVGVAGPRMQAEGCEAWYEMEELAVMGISESSGRSRRSSHIRADLTKRFGELKPDVFVGIDAPDFNITLEGNLKKQGIKTIHYVSPSVWAWRQKRVFKIGRATDLVLAFLPFEKAFYDKYNVPCRFIGHTMADAMPLDPDKNAARDVLGIPHDAHCLALLPGSRGAEVESLSADFLKTAQLLRQTYPDLEIVVPLVNAKRREQFERIKAEVAPDLSVHLLDGMGREAMVASDAALLASGTAALECMLAKCPMVVGYRMKPFTFWLAKRLVKTDYVSLPNLLAGRELVKELLQEECEPQKLAAALLPLLANGKTSHAMHDTFRELHQQIRCNADEQAAQAVLELAQ | binds | –
LpxB6S (E. coli lipid A disaccharide synthase LpxB with V66S, V68S, L69S, L72S, L75S, L76S) (enzyme, Escherichia coli, UniProt P10441 1-382, looked up, lipid A disaccharide synthase LpxB, Escherichia coli; residues up to 382 named in the structure; the gene was cloned from strain BL21; also called soluble LpxB; solubilized LpxB; source: E. coli BL21 (DE3), purified (Ni-NTA, Ulp1 cleavage, Superdex 200); not shown: His tag, N-terminal, cleaved; SUMO, N-terminal, cleaved) MTEQRPLTIALVAGETSGDILGAGLIRALKEHVPNARFVGVAGPRMQAEGCEAWYEMEELAVMGISESSGRSRRSSHIRADLTKRFGELKPDVFVGIDAPDFNITLEGNLKKQGIKTIHYVSPSVWAWRQKRVFKIGRATDLVLAFLPFEKAFYDKYNVPCRFIGHTMADAMPLDPDKNAARDVLGIPHDAHCLALLPGSRGAEVEMLSADFLKTAQLLRQTYPDLEIVVPLVNAKRREQFERIKAEVAPDLSVHLLDGMGREAMVASDAALLASGTAALECMLAKCPMVVGYRMKPFTFWLAKRLVKTDYVSLPNLLAGRELVKELLQEECEPQKLAAALLPLLANGKTSHAMHDTFRELHQQIRCNADEQAAQAVLELAQ | – | 2
